Among the data in US20230391872A1 (ANAPTYSBIO, published 2023) are EC50 values, retold here.

Assay [1] has as its target T1, human BTLA on cells (stably transfected 293c18 cells; human peripheral blood T and B cells) (human, UniProt Q7Z6A9 31-289).
T1 construct: whole, on cells; the cells are named under assay; also called cell surface BTLA; full-length human BTLA
Briefly: flow cytometry (MFI DyL650) on gated CD20+ B cells of human PBMC, DyLight 650-labelled antibody, three-parameter fit [right panel (Naive B cells]. As for the experimental part: (§1) Human peripheral blood mononuclear cells (PBMCs) were isolated by Histopaque (Sigma-Aldrich) density-gradient centrifugation of normal donor blood obtained from the San Diego Blood Bank (San Diego, CA). PBMCs were washed and incubated at 2×10⁷ cells/ml in FACS buffer (PBS, 1% BSA, 0.02% sodium azide) with Human BD Fc Block (2.5 μg/1×10⁶ cells, BD Biosciences) and LIVE/DEAD® Fixable Yellow Dead Cell Stain (30 μl, ThermoFisher Scientific) for 10 minutes on ice. Cells were washed once in FACS buffer, resuspended in FACS buffer at 1×10⁷ cells/ml and the following phenotyping antibodies added: Alexa Fluor 488-anti-human CD3E clone SK7, Brilliant Violet 421-anti-human CD4 clone OKT4, Brilliant Violet 785-anti-human CD8 clone SK1, and Brilliant Violet 570-anti-human CD20 clone 2H7 (50 μl each; all from BioLegend, Inc.). […] Samples were washed twice in FACS buffer, resuspended in 150 μl/well FACS buffer, and analyzed for fluorescence on a NovoCyte Flow Cytometer (ACEA Biosciences, Inc.). Data were analyzed using NovoExpress Software (ACEA Biosciences, Inc.). Median fluorescence intensities of anti-BTLA or isotype staining on gated CD4⁺ T cells (FIG. 4), CD8⁺ T cells (FIG. 4), or CD20⁺ B cells (FIG. 4) were graphed and curves fit with log(agonist) vs. response (three parameters) least squares fit for EC₅₀ calculation in GraphPad Prism (GraphPad Software, Inc.).

In assay [2] the target is T2, cynomolgus monkey BTLA on cells (stably transfected 293c18 clone 1G5); cynomolgus peripheral blood T and B … (cynomolgus monkey, UniProt A0A2K5W7M7 31-289).
T2 construct: whole, on cells; also called cynomolgus monkey BTLA 293c18 cells
T2 sequence: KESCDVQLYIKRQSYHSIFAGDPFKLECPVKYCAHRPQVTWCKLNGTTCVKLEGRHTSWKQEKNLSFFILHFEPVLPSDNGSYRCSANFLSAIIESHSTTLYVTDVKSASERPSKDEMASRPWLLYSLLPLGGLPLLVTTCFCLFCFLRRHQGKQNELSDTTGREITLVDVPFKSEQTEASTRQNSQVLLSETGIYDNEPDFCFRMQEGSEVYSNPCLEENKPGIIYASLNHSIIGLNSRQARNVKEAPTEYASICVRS
Put plainly: flow cytometry on cynomolgus monkey BTLA 293c18 cells, anti-human kappa-PE detection; both lots (APE10840.03 and APE10840.04); cynomolgus BTLA 293c18 cells. As for the experimental part: 293c18 cell clone 1E4 stably expressing human BTLA construct or clone 1G5 stably expressing cynomolgus monkey BTLA were harvested with Accutase solution (Millipore Sigma/Sigma-Aldrich) and washed once with Phosphate-Buffered Saline, 1% BSA. 293c18 cynomolgus monkey BTLA cells were loaded with the lipophilic carbocyanine dye, DiD (2 μM, 1,1′-dioctadecyl-3,3,3′,3′-tetramenthylindodicarbocyanine; ThermoFisher Scientific) by rocking gently for 10 minutes at room temperature. DiD-stained cells were washed in PBS, 1% BSA and equal amounts of human BTLA 293c18 cells and cynomolgus monkey BTLA 293c18-DiD-stained cells were mixed. Cells (2×10⁵ total cells/sample) were incubated with the indicated concentrations of purified 6G3 IgG4 (two production lots, APE10840.03 and APE10840.04 (H Chain SEQ ID NO: 144, L Chain SEQ ID NO: 174)) or human IgG4 isotype control antibody specific for hen egg lysozyme with gentle shaking for 10 minutes at 4° C. in FACS buffer (PBS, 1% BSA, 0.02% sodium azide). […] Cells were washed and resuspended in FACS buffer and analyzed for fluorescence on a BD FACSArray (BD Biosciences). DiD stained cells expressing cynomolgus monkey BTLA (FIG. 3) were analyzed for median fluorescence intensity (MFI) separately from cells expressing human BTLA (FIG. 3). […]
In general terms: In flow cytometry, cells or beads pass a laser one at a time.

The target in assay [3] is T1, human BTLA on cells (stably transfected …). Briefly: flow cytometry (MFI DyL650) on gated CD4+ T cells of human PBMC, DyLight 650-labelled antibody, three-parameter fit [left panel (Naive CD4+ T cells]. As for the experimental part:
as §1

B1: 6G3 IgG4 anti-BTLA antibody (APE10840 / APE12839 / APE13308) (antibody, V domains shown)
VH: QVQLVQSGAEVKKPGSSVKVSCKASGYVFSTSWMNWVRQAPGQGLEWMGRIYPGDADTNYVGKFKGRVTITADKSTTTAYMELSSLRSEDTAVYFCAKSGTFNFGNYRWYFDVWGKGTTVTVSS
VL: AIQLTQSPSSLSASVGDRVTITCRVSENIYSHLAWYQQKPGKAPKLLIYAATNLALGVPSRFSGSGSGTDYTLTISSLQPEDFATYYCQLFWGPPLTFGGGTKVEIKR
notes: Humanized antibody from a mouse hybridoma, tested as human IgG4 (detected with anti-human kappa); Some assays used labelled lots (DyLight 650, AF647, biotin, DyL488); also called 6G3 antibody; APE10840.03
For the molecule B1, the half-maximal effective concentration (EC50) (as a rule, the concentration at which the effect is half-maximal) is 0.54 nM in assay [1], around 2.3 nM in assay [2] and 2.44 nM in assay [3].
